Laboratory results from patent US20240245800A1, “HIGHLY SPECIFIC RABBIT SINGLE -DOMAIN ANTIBODIES FOR DRUG DELIVERY IN IMMUNOTHERAPY APPLICATIONS” (TECHNOPHAGE, INVESTIGAÇÃO E DESENVOLVIMENTO EM …, priority 2021, published 2024).

Tests used:
[1] = tested on: Jurkat cells; experiment: Flow cytometry binding of C5 VL sdAb to Jurkat cells; type: cell-based, human
Description: FIG. 8. Binding and internalization characterization of C5 VL sdAb. C5 binding and internalization properties against CLBL-1 cells were evaluated by cytometry and immunofluorescence. A) For flow cytometry analysis, 1×10^6 of CLBL-1 cells were incubated with Live/Dead reagents for 30 minutes. Then, 3 μM of C5 were incubated with the cells for different timepoints at 37° C. After, cells were washed, fixed, permeabilized, and incubated for 30 min with anti-HA antibody, washed twice and incubated with anti-rat Alexa Fluor-488. […] B) By contrast, no binding of C5 was detected with Jurkat cells. C) To confirm the binding of C5 to the CLBL-1 verified by flow cytometry, we evaluated its distribution on the cells by immunofluorescence assay. […] Representative microphotographs with C5 (green) and DAPI stained-nuclei (blue) are shown.
The C5 VL sdAb binding and cellular internalization properties towards CLBL-1 cells were studied by cytometry analysis and immunofluorescence. […] Live/dead reagent was used to exclude dead cells and the background noise was also evaluated in the control with the secondary antibody (data not shown). To better characterize the binding of the C5 to the CLBL-1 cells, we further evaluated the internalization of the C5 sdAb on the cells using an immunofluorescence assay. […]

[2] = target: T1, Human Topoisomerase I (Homo sapiens, UniProt P11387); experiment: DNA Topo I activity assay (Human Topoisomerase I Assay Kit); type: biochemical; settings: 10 U Topo I, supercoiled DNA, agarose gel
T1 construct: purchased Topogen
T1 sequence (P11387 1-765): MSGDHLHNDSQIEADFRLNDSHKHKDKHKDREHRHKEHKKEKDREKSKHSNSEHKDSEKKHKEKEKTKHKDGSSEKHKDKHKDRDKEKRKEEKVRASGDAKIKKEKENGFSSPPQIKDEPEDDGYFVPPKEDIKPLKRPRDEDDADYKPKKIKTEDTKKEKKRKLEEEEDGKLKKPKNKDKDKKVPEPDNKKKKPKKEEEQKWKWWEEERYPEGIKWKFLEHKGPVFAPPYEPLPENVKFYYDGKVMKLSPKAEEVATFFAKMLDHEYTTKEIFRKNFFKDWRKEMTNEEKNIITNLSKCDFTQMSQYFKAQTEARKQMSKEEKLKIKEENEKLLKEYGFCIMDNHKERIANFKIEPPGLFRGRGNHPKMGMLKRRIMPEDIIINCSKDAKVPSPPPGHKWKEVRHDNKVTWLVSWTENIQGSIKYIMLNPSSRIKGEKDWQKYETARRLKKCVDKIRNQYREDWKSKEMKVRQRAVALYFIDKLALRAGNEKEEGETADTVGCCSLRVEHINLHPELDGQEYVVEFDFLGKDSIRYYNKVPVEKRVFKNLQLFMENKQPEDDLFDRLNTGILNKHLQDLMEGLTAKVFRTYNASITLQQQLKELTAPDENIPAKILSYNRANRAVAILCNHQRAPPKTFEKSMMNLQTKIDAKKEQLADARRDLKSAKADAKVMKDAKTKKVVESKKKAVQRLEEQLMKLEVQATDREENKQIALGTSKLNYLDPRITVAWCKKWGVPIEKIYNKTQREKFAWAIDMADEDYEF
Description: FIG. 11—Cytotoxic effects of C5-DAB-SN-38. To determine the effect of C5-DAB-SN-38 on CLBL-1 and Jurkat cells, a cell viability assay was performed using the WST-1 reagent. 6×10^4 cells were seeded and treated with increasing amounts of compound. After 48 h treatment, cell viability was assessed. […] B) On the other hand, ADC had no effect on Jurkat cells, proving the specificity of the ADC. C5 was used as control. Best-fit EC50 values of each formulation were calculated using GraphPad Prism software (version 9.2.0, San Diego, CA, USA) using the log (inhibitor) vs response (variable slope) function. D) Effects of C5-DAB-SN-38 on DNA TopoI activity. To evaluate the effects of C5-DAB-SN-38 on DNA Topo I, we evaluated its activity using the Human Topoisomerase I Assay Kit. After incubation of C5-DAB-SN-38 with 1× reaction buffer and 10 U of Topo I for 1 h at 37° C., the supercoiled DNA was added. To stop the reaction, stop loading buffer was added. DNA TopoI activity was visualized by 1% agarose gel electrophoresis […] with ethidium bromide. Relaxed DNA indicated TopoI activity while supercoiled DNA indicated an inhibition. […] Relaxed DNA and supercoiled DNA were used as positive/negative controls. C5 and SN-38 were also used as controls.
Topo I activity on VL-DAB-SN38 was determined using the Human Topoisomerase I Assay Kit (Topogen, CO, USA) according to the manufacturer's instructions. […]

B1: C5: rabbit derived anti-cNHL VL sdAb clone, SEQ. ID. 3; ^99mTc radiolabelled for biodistribution (antibody, listed as Oryctolagus cuniculus, V domains shown)
VL: ELDLTQTPSPVSASVGGTATINCQASQSVYNNYWWAWYQQRPGHPPKLLIYETSKLASGVPSRFKGSGSGTQFTLTIIDVQCDDAATYVCAGGYGTVIDNAFGGGTELEIL
modifications: 99mTc(CO)3 radiolabel
notes: ID; ^99mTc radiolabelled for biodistribution
**Q.** With B1 as the molecule, how does the “binding to Jurkat cells (flow cytometry)” value [1] read?
**A.** The value was “no binding interaction”.

**Q.** What about the “effect on DNA Topo I activity” value [2] of the same molecule?
**A.** The value was “not able to alter enzyme activity”.
